The values that follow come from patent US20110070238A1 (published 2011).

In this test the target is T1, LAG-3 protein as used in the Biacore analysis (partner not given) (UniProt P18627 23-434, limits assumed).
T1 sequence (looked up): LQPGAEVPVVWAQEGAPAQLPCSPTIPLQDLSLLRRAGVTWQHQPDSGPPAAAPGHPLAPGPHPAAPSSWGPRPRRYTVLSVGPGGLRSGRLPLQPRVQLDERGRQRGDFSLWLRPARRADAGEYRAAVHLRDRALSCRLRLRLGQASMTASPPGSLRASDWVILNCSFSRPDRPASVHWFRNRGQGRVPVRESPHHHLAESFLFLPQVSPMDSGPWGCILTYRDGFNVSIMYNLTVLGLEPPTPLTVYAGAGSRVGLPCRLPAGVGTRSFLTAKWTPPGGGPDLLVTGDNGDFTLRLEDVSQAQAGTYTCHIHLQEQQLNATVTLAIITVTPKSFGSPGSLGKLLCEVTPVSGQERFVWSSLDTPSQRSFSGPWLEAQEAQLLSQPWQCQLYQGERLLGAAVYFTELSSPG
Kind of test: Biacore (SPR). A general note: SPR reads the build-up and loss of mass on a sensor chip optically.

B1: A9H12 (580.1E MM H12), murine IgG2a anti-human LAG-3 monoclonal antibody (antibody, V domains shown)
VH: QVQLKESGPGLVAPSQSLSITCTVSGFSLTAYGVNWVRQPPGKGLEWLGMIWDDGSTDYNSALKSRLSISKDNSKSQVFLKMNSLQTDDTARYYCAREGDVAFDYWGQGTTLTVSS
VL: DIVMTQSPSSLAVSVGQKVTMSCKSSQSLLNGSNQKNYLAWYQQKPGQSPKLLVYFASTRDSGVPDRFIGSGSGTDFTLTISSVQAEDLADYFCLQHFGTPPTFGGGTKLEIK
notes: Murine IgG2a from hybridoma; also called A9H12 LAG-3 mAb; hybridoma CNCM I-3755
Consider B1, for which the Kd (as a rule, a measure of binding affinity in units of concentration) is 829 pM; the koff (commonly the rate constant with which the complex falls apart) was found to be 0.00143 s⁻¹; the kon (as a rule, the rate constant with which the complex forms) worked out at 1.72e+06 M⁻¹ s⁻¹.

B2: IMP731 (chimeric A9H12 with human IgG1 Fc region) (antibody, V domains shown)
VH: B1 VH
VL: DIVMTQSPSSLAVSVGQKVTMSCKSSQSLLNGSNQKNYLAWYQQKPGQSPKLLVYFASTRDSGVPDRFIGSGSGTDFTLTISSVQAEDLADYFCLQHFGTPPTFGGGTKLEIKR
notes: also called ImmuTune IMP731; IMP371 [sic]
With B2, the Kd is 551 pM, the koff was 0.00112 s⁻¹ and the kon worked out at 2.03e+06 M⁻¹ s⁻¹.
